What all share (assay): EMSA; 10% glycerol, 20 mM HEPES pH 7.8, 45 mM KCl, 10 mM NaCl, 1 mM EDTA, 1 mM DTT, 0.2 ug/uL BSA, 0.1% NP-40, 50 ng poly-dIdC; 20 ng each GST protein; room temperature 30 min (heterodimers 4 C); 6% PAGE 0.25x TBE
Common to all, as to conditions: protein: recombinant; tags: GST (N-terminal, pGEX-6P-1); label: 32P-dCTP fill-in of the 5' (dG)5 overhangs of both strands (Methods; control probes are given with GGG)
A general note: Mobility shift assays separate free from complexed probe on a gel.

In series [1] the target is T1, Oct6 DNA-binding domain (BD-Oct6) (Mus musculus (B6), UniProt P21952 317-416).
T1 sequence: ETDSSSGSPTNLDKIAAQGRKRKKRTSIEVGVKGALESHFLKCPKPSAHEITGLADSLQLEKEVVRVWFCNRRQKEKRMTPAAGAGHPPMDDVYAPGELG
An outline of the steps:
(§1)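 Transcription factor DNA-binding domains carrying a GST tag were expressed in E. coli BL21, purified on glutathione-sepharose and tested against annealed candidate cis-element oligonucleotides labelled with 32P-dCTP. Each reaction held 20 ng protein, 40,000–50,000 cpm probe and 50 ng poly-dIdC in HEPES/KCl glycerol buffer with BSA and detergent, incubated 30 min at room temperature, then run on 6% polyacrylamide in 0.25×TBE at 4°C. DNA binding was scored as the radioactivity of the band in the expected shift region, read on a phosphor imager.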

For series [2], the target named is Pax6 DNA-binding domain (BD-Pax6) (Mus musculus (B6), UniProt P63015 190-289). The method in brief:
as §1

Series [3] deals with T2, Brn2 DNA-binding domain (BD-Brn2) (Mus musculus (B6), UniProt P31360 336-435).
T2 sequence: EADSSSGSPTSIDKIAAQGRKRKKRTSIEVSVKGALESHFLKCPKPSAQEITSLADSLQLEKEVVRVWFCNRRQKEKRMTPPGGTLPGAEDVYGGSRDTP
The method in brief:
as §1

Sequence of Pax6 DNA-binding domain (BD-Pax6) (P63015 190-289): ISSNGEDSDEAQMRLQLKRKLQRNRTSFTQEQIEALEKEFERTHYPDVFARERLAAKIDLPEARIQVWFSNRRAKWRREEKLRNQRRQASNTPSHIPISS

B1: 113 (dsDNA)
DNA 1: GGGGGACTAAGTCATTGTTTATTTCCGTGCTGTTCCCCC
DNA 2: GGGGGAACAGCACGGAAATAAACAATGACTTAGTCCCCC
On to B1, for which the binding result in series [1], in series [2] and in series [3] was “no binding” throughout.

B2: 101 (dsDNA)
DNA 1: GGGGGTGCCTCCTTTTGTGAGCTATTTATAATGCTAACCCCC
DNA 2: GGGGGTTAGCATTATAAATAGCTCACAAAAGGAGGCACCCCC
Regarding B2, the binding result was “binds” in series [1], “no binding” in series [2] and “binds” in series [3].

B3: 106 (dsDNA)
DNA 1: GGGGGGCTTCCCTAGAATTGGAGATACAAAGGGCTCTGCCCCC
DNA 2: GGGGGCAGAGCCCTTTGTATCTCCAATTCTAGGGAAGCCCCCC
With B3, the binding result in series [1], in series [2] and in series [3] was “no binding” each time.

B4: 100 (dsDNA)
DNA 1: GGGGGCAACCAAAAAAAATGTATTTTACAAAAATCACAACCCCC
DNA 2: GGGGGTTGTGATTTTTGTAAAATACATTTTTTTTGGTTGCCCCC
As to B4, the binding result in series [1] is given as “binds”; in series [2], “binds”; in series [3] it was “no binding”.

B5: 2 (dsDNA)
DNA 1: GGGGGGCCATAGAATTGTACTTCTGTCACCAGTTTTATTTTTTTATTTCCCCC
DNA 2: GGGGGAAATAAAAAAATAAAACTGGTGACAGAAGTACAATTCTATGGCCCCCC
For B5, the binding result in series [1], in series [2] and in series [3] was “no binding” in each case.

B6: 110 (dsDNA)
DNA 1: GGGGGTTTATTTATTTGTTTTATTTCTATTTTTCTTGGTGACCCCC
DNA 2: GGGGGTCACCAAGAAAAATAGAAATAAAACAAATAAATAAACCCCC
For the molecule B6, the binding result in series [1] is on record as “binds”; in series [2], “no binding”; in series [3], “no binding”.

B7: 117 (dsDNA)
DNA 1: GGGGGGAAAAACAAAGATTTAGTATAAACCCCC
DNA 2: GGGGGTTTATACTAAATCTTTGTTTTTCCCCCC
B7: the binding result in series [1], in series [2] and in series [3] was “no binding” throughout.

B8: 116 (dsDNA)
DNA 1: GGGGGAAGGCCAGACTAATCTACAAAGTGAGTTCCCCCC
DNA 2: GGGGGGAACTCACTTTGTAGATTAGTCTGGCCTTCCCCC
On to B8, for which the binding result in series [1], in series [2] and in series [3] was “no binding” each time.

B9: 102c (dsDNA)
DNA 1: GGGGGATTTGGCGATTGTATTATAATTGTCTATCAGTCCCCC
DNA 2: GGGGGACTGATAGACAATTATAATACAATCGCCAAATCCCCC
In the case of B9, the binding result in series [1], in series [2] and in series [3] was “binds” throughout.

B10: 108 (dsDNA)
DNA 1: GGGGGCATCTTATCGTTAATATATACGTTTGTTACATATACCCCC
DNA 2: GGGGGTATATGTAACAAACGTATATATTAACGATAAGATGCCCCC
As to B10, the binding result in series [1], in series [2] and in series [3] was “binds” each time.

B11: 109 (dsDNA)
DNA 1: GGGGGCTTTTTTTTTTGTATGTGATTTGAGGCAGAGTCCCCC
DNA 2: GGGGGACTCTGCCTCAAATCACATACAAAAAAAAAAGCCCCC
Turning to B11, the binding result in series [1], in series [2] and in series [3] was “no binding” in each case.

B12: 1 (dsDNA)
DNA 1: GGGGGAAAATAACCAAAATAAAAAGTGTACAATTCAGTGGCCCCCC
DNA 2: GGGGGGCCACTGAATTGTACACTTTTTATTTTGGTTATTTTCCCCC
As for B12, the binding result in series [1], in series [2] and in series [3] was “no binding” in each case.

B13: 104 (dsDNA)
DNA 1: GGGGGCACAATTTTTATAATATATAATTGTTTCATCAACCCCC
DNA 2: GGGGGTTGATGAAACAATTATATATTATAAAAATTGTGCCCCC
Turning to B13, the binding result in series [1], in series [2] and in series [3] was “binds” throughout.

B14: 115 (dsDNA)
DNA 1: GGGGGCTGGCCAGACAATGACGATATTTTTTTCCTTCACCCCCC
DNA 2: GGGGGGTGAAGGAAAAAAATATCGTCATTGTCTGGCCAGCCCCC
B14: the binding result in series [1], in series [2] and in series [3] was “no binding” each time.

B15: 9 (dsDNA)
DNA 1: GGGGGTCCTGCCACTTGGGTTGCAGTGAGGACAATGAAATGAGCCCCC
DNA 2: GGGGGCTCATTTCATTGTCCTCACTGCAACCCAAGTGGCAGGACCCCC
With B15, the binding result in series [1], in series [2] and in series [3] was “no binding” in each case.

B16: 105 (dsDNA)
DNA 1: GGGGGATTTTTTAAAAAATTAGACTACCACAAATCAACTGTCCCCC
DNA 2: GGGGGACAGTTGATTTGTGGTAGTCTAATTTTTTAAAAAATCCCCC
Regarding B16, the binding result in series [1], in series [2] and in series [3] was “binds” throughout.

B17: 10 (dsDNA)
DNA 1: GGGGGACACACACACAAAGATTTATTTATTCATTTAATCCCCC
DNA 2: GGGGGATTAAATGAATAAATAAATCTTTGTGTGTGTGTCCCCC
With B17, the binding result in series [1] is given as “no binding”; in series [2] it was “no binding”; in series [3] it was “binds”.

B18: 107 (dsDNA)
DNA 1: GGGGGACTAGTTTTCTATTACTACAAATCTCAACTCCCCC
DNA 2: GGGGGAGTTGAGATTTGTAGTAATAGAAAACTAGTCCCCC
On to B18, for which the binding result in series [1], in series [2] and in series [3] was “no binding” throughout.

B19: 102a (dsDNA)
DNA 1: GGGGGGGATCCCCACAATACAAAAAAAACAAAAACAAAACCCCCC
DNA 2: GGGGGGTTTTGTTTTTGTTTTTTTTGTATTGTGGGGATCCCCCCC
Turning to B19, the binding result in series [1], in series [2] and in series [3] was “no binding” each time.

B20: 112 (dsDNA)
DNA 1: GGGGGTGTGTTCATTTGTTTTTATTTTAGAAGGAGTCCCCC
DNA 2: GGGGGACTCCTTCTAAAATAAAAACAAATGAACACACCCCC
Turning to B20, the binding result is given as “binds” in series [1], “no binding” in series [2] and “binds” in series [3].

B21: 102b (dsDNA)
DNA 1: GGGGGAAAACAAAACAAAACTGGATTTGGCGATTGTATCCCCC
DNA 2: GGGGGATACAATCGCCAAATCCAGTTTTGTTTTGTTTTCCCCC
With B21, the binding result in series [1], in series [2] and in series [3] was “no binding” throughout.

B22: 111 (dsDNA)
DNA 1: GGGGGTTCAACCTTTTGTTGTATCATTTAAAAAACATTCCCCC
DNA 2: GGGGGAATGTTTTTTAAATGATACAACAAAAGGTTGAACCCCC
B22: the binding result in series [1] is “binds”; in series [2], “no binding”; in series [3], “binds”.

B23: 114 (dsDNA)
DNA 1: GGGGGTGATTTTTGCAAAATTTTGTTTTGTTTCTTGAGCCCCC
DNA 2: GGGGGCTCAAGAAACAAAACAAAATTTTGCAAAAATCACCCCC
For B23, the binding result in series [1], in series [2] and in series [3] was “no binding” in each case.

Source of the values: PMC3713010, “Sox2 Transcriptionally Regulates Pqbp1, an Intellectual Disability-Microcephaly Causative Gene, in Neural Stem Progenitor Cells”.
